The values below come from publication PMC11230385.

The target of this assay is T1, Aquaporin Z with a C-terminal Strep-tag II (AqpZ-STII) (Escherichia coli), P60844.
T1 chain: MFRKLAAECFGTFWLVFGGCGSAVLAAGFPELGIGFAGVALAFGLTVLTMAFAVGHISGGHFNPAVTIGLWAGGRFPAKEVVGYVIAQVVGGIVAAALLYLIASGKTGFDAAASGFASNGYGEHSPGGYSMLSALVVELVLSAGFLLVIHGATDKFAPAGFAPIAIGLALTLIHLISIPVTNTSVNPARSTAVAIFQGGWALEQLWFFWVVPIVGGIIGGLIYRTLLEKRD
Put plainly: native MS. To be noted: remark: other sources report otherwise.

B1: Aquaporin Z with a C-terminal Strep-tag II (AqpZ-STII), P60844 1-231 (natural protein)
chain: MFRKLAAECFGTFWLVFGGCGSAVLAAGFPELGIGFAGVALAFGLTVLTMAFAVGHISGGHFNPAVTIGLWAGGRFPAKEVVGYVIAQVVGGIVAAALLYLIASGKTGFDAAASGFASNGYGEHSPGGYSMLSALVVELVLSAGFLLVIHGATDKFAPAGFAPIAIGLALTLIHLISIPVTNTSVNPARSTAVAIFQGGWALEQLWFFWVVPIVGGIIGGLIYRTLLEKRD
Broadly, the stoichiometry N is the number of molecules, sites or subunits per partner or assembly. Molecule B1 showed a stoichiometry N of 4.
